From PMC8812563 (Proceedings of the National Academy of Sciences of the …, 2022)

Target: T1, PHYTOCHROME-INTERACTING FACTOR 7 with Flash tag (35S::PIF7-Flash; 9xMyc-6xHis-3xFlag) (Arabidopsis thaliana, UniProt Q570R7 1-366)
T1 sequence (looked up): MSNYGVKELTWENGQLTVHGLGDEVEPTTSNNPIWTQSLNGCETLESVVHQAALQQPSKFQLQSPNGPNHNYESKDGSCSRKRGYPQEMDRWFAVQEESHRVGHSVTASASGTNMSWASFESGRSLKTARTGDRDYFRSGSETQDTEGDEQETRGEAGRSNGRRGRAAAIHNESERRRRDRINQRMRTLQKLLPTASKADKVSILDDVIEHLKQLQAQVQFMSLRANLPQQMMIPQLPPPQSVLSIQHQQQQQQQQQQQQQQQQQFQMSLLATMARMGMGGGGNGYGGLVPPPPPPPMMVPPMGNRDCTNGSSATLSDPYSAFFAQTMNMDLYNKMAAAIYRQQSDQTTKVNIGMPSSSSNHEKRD
Test: co-IP

binding result: binds
B1: ANGUSTIFOLIA3 / GRF-INTERACTING FACTOR 1 with GS^yellow tag (35S::AN3-GS^yellow) (natural protein, Arabidopsis thaliana, UniProt Q8L8A5 1-210, looked up)
chain: MQQHLMQMQPMMAGYYPSNVTSDHIQQYLDENKSLILKIVESQNSGKLSECAENQARLQRNLMYLAAIADSQPQPPSVHSQYGSAGGGMIQGEGGSHYLQQQQATQQQQMTQQSLMAARSSMLYAQQQQQQQPYATLQHQQLHHSQLGMSSSSGGGGSSGLHILQGEAGGFHDFGRGKPEMGSGGGGEGRGGSSGDGGETLYLKSSDDGN
